Experiment: yeast display, Sf9 membrane polyspecificity reagent, FACS + sequencing; frameworks hold sequencing errors
Summary of the method: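 A synthetic nanobody library was expressed on Saccharomyces cerevisiae BJ5465 by galactose induction for 36–48 hours. The library was stained for 1 hour at 4 °C with 10% biotinylated, detergent-solubilized Sf9 membrane reagent and enriched with streptavidin microbeads before FACS. Low and high (top ~1%) gates were set on anti-HA fluorescence for expression and streptavidin fluorescence for reagent binding, and each polyreactivity label reflects the gate of origin.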

Sequence | polyreactivity (PSR sort gate)
QVQLVESGGGLVQAGGSLRLSCAASGSTFWFYPMGRYRQAPGKERELVAVISNSGSTYYADSVKGRFTISRDNAKNTVYLQMNSLKPEDTAVYYCNKDGGGDSYWYDYWGQGTQVTVSS | low polyreactivity
QVQLEESGGGIVQAGGSLRLSCASSGFIFKAYAMVWSRQAPGKERDLVAVITGSSGRTYADSVKGRFTISRDNAKNTVYLQMNSLKPEDTAVYYCAADLRKSKYRYWRRYDYWGQGTQVTVSS | high polyreactivity
QEQLQESGGGLVQAGGSLRQICAASGSNTPWSYMGRYRQAPGKEREFVASINAGTNTYYADSAKGRITISRDNAKITVYLQMNSLKPEDTAVYYCAARPDGDRLFSYWGQGTQVTVSS | low polyreactivity
QVQLVESGGGLVQAGGSLRLSCAASGIIFRYAMGWYRQSPGKERELVARITVGSTYYADSVKGRFTISRDNAKNTVYLQMNSLKPEDTAVYYCNKDSGEDDRWPYDYWGQGTQVTVSS | low polyreactivity
QVQLVESGGGLVQAGGSLSLSCAASGIIFYNYAMGWYRQAPGKERELVAAISSSGGRTYYAESVKGRFTISRDNAKNTVYLQMNSLKPEDTAVYYCAAYVWAYYVPYNYGYWGQGTQVTVSS | high polyreactivity
QVHLVESGGGLVQAGGCLRLICAASGSIFVPYAMGWYRQAPVKERELVAAISRGGDTNYADSVKGRFTISRDNAKNTVYLQMKSLKPEDTAVYYCAKSGYGNRGFDYWGQGTQVSVSS | low polyreactivity
QVQLVESGGVLVQAGGSLRLSCAASGRIFLEYAMGWYRQAPGKERELVAAISRGGGRTYYADSVKGRFTISRDNAKNTVYLLMNSLKPEDTAVYYCAAGLAKGYWASFAYRYDYWGQGTQVTVSS | high polyreactivity
QVQLVESGGGLVQAGGSLRLSCAASGGTFSYYAMGWYRQAPGKGELVAAISSGGSTNYADSVKGRFTISRDNAKNTVYLQMNSLKPEDTAVYYCAARYRFWGPYNYWGQGTQVTVSS | high polyreactivity
QVQLVESGGGLVQAGGSLRLSCAASGRIFGTYAMGWYRQAPGKERELVAAISSSGTSTYYADSVKGRFTISRDNAKNTVYLQMNSLKPEDTAVYYCAADTVSFSILYDYWGQGTQVTVSS | low polyreactivity
QVQLVESGGGLVQAGGSLRLSCAASGRTVSSNAMGWYRQAPGKERELVASISFRGGRTYYADSVKGRFTISRDNAKNPVYLQMNSLKPEDTADYYCVSGTKRTGYGYWGQGTQVTVSS | high polyreactivity
QVQLVESGGGLVQAGGSLRLSCAASGRTFDKYAMGWYRQAPGKERELVAAITRSGGSTYYADSVKGRFTISRDNAKNTVYLQMNSLKPEDTAVYYCAKRYWSYRWKYDYWGQGTQVTVSS | high polyreactivity
QVQLVESGGGLVQAGGSLRLSCAASGFTLALNAMGWYRQAPGKERELVAVINSGGSTNYADSVKGRFTISRDNAKNTVYLQMNSLKPEDTAVYYYWGQGTQVTESS | low polyreactivity
QVQLVESGGGLVQAGGSLRLSCAASGRTFLRNAMRWYRQAPGKERELVATISIGGRTYYADSVKGRFTISRDNAKNTVYLQMNSLKPEDTAVYYCNASTSILSLDWEYGSWGQGTQVTVSS | low polyreactivity
QVQLVESGGGLVQAGGSLRLSCAASGRIFYVNGMGWYRQAPGNERELVAAIRISGGRTYYADSVKGRFTISRDYAKYTVYFQMNSLKPEDTAVYFCAKRYYYPYAGYDYWGQGTQVTVSS | high polyreactivity
QVQLVESGGGLVQAGGSLRLSCAASGFTFRWYAMGWYRQAPGKERELVAAITSSGGSTYYADSVKGRFTISRDNAKNTVYLQMNSLKPEDTAVYYCNKRFLDLSYHDYDYWGQGTQVTVSS | high polyreactivity
QVQLVESGGGLVQAGGSLRLSCAASGRTFRFNTMGWYRQAPGKERELVAAITSSGGSTYYADSVKGRFTISRDNAKNTVYLQMNSLKPEDTAVYYCAKRFYYRNRFDYWGQGTQVTVSS | low polyreactivity
QVQVVESGGGLVQAGGSLRLSCAASGRIFYTNAMGWYRQAPGKERELVAVISWGGDTTYYADSVKGRFTISRDKAKNTVYLQMNSLKPEDTAVYYCNADWGPTYEIYDSWGQGTQVTVSS | low polyreactivity
QVQLVESGGGLVQAGGSLRLSCAASGSISWKYAMGWSRQAPGKERELVAAISWSGSSTYYADSVKGRFTISRDNAKNTVYLQMNSLKPEDTAVYYCAADRVSRLTNRREYWGQGTQVTVSS | high polyreactivity
QVQHVESGGGLVQAGGSLRLSCAASGSTIRNYAMGWYRQAHGKERELVAAISSGGRTYYADSVKGRFTISRDNAKNPVYLQMTSLKPEDTAVYYCAARVYYWSFAGILYTPTGGYWGQGTQVTVSS | high polyreactivity
QFQLVESGGGLVQAGGSLRLSCADSGSIFLLYVMGWYRQAPGKERELVAAISSGGSTNYADSVKGRFTISRDNAKNTVYLQMNSLKPEDTAVYYCNAVAVPQGVKLYDYWGQGTQVTVSS | low polyreactivity
QVQLVESGGGLVQAGGSLRLSCAASGRISKGYAMGWYRPAPGKERELVAAISWRTSSTYYADSVKGRFTISRDNAKNTVYLQMNSLKPEANAVYYCAAETWLGSWRQVGMDYWGQGTQVTVSS | high polyreactivity
QVQLEESGGGLVKAGGSIRLSCAASGLIFYSYAMVWYRHAPGKERELVAVITRSGGNTNYADSVKGRFTISRDNAKNTVYLQMNSRKPEDTAVYYCATRGIWKKVPYYYWGQGTQVTVSS | high polyreactivity

Sequence | polyreactivity (PSR sort gate)
QFQLVESGGRLVQAGGSLRLSCAASGSIFYLNAIGSYRQAPGKERELVAAISRSGGRTYYADSVKGRFTISRDNAKNTVYLQMNSLIPEDTAVYYCAADVQAQGAYRGGYWGQGTQVTVSS | high polyreactivity
QVQLVESGGGLVQAGGSLRLSSAASGSTFYWYAMGWYRQAPGKERELVASITRSGVRTYYADSVKGRFTISRDNAKNTVYLQMNSLKPEDTAVYYCAAERYYFPRSYRYGYWGQGTQVTVSS | low polyreactivity
QVQLVESGGGLVQAGGSLRLSCAASGITFTAYAMGWYRQAPGKEREFVAVITRSGGSTYYADSVKGRFTISRDNAKNTVYLQMNSLKPEDTAVYYCAAETSYRYGWYYYWGQGTQVTVSS | high polyreactivity
QVQLVESGGGLVQAGGSLRLSCAASGIIFASNAMGWYRQAPGKERELVAAISGSGGRTYYADSVKGRFTISRDTAKNTVYLQMNSLKPEDTAVYYCAAARANNYDYWGQGTQVTVSS | high polyreactivity
QVQLVDSGGGLVQAGGSLRLSCAASGYIFRVYAMGWYRQAPGKERELVAAISGSGGRTYYADSVKGRFTISRDNAKNTVYLQMNSLKPEDTAVYYCAAYRVSDYDYWGQGTQVTVSS | high polyreactivity
QVQLVESGGGLVQAGGSLRLSCAASGGIFGTNDLGWSRQAPGKERELVAAITSDSGSTYYADSVKGRFTISRDNAKNTVYLQMTSLKPEDTAVYYCAAEDGPWFYRYGYWGQGTQVTVSS | low polyreactivity
QVPLVESGGGLVQAGGSLRLICAASGRIFYRYAMVWYRQAPGKERELVATISRSGGSTNYADSVKGRFTISRDNAKNTVYLQMNSLKPEDTAVYYCNARYLSTRSGDYWGQGTQVTVSS | high polyreactivity
QVQLVESGGGLVLAGGSLRLICAGSGRIFYTNTMGWYRQAPWKGRELVAAIRSGTRTYYADSVKGRFTISRDNAKNTFYLLMNILKPEATAVYYCAAYYSYYGGDYWGQGTQVTVSS | low polyreactivity
QVQLVESGGGLVQAGGSLRLSCAASGSTFTINVMGSYRQAPGKERELVAAINGGGRTNYADSVKGRFTISRDNAKNTVYLQMNSLKPEDTAVYYCAADGLSNVRQMDYWGQGTQVTVSS | low polyreactivity
QGQLVESGEGLVQAGGSLRLRCAASGSIIRYYTMGGYRQAPGKERELVAAISWSGGSTYYADSVKGRFTISRDNANNTVYLQMNSLKPEETSVYYCNAVSFAYNPYSATYDYWGQGTQVTVSS | high polyreactivity
QVQLVESGGGLVQAGGSLRLSCAASGSIFAANTMGWYRQAPGKERELVAAITGSGASTYYADSVKGRFTISRDNAKNTVYLQMNSLKPEDTAVYYCAARRYTSYYKDGWYAYYYWGQGTQVTVSS | high polyreactivity
QVQLVESGGGLVQAGGSLRLSCAASGSTFYPYTMGWYRQAPGKERELVAAITSGGNTNYADSVKGRFTISRDNAKNTVYLQMNSLKPEDTAVYYCNAEPEGTTGNYFPYDYWGQGTQVTVSS | low polyreactivity
QVQLVESGGGLVQAGGSLRLSCAASGFIFGAYAMGWYRQAPGKERELVAALSSRGGNTYYADSVKGRFTISRDNAKNTVYLQMNSLKPEDTAVYYCNAVGYARYLYVPPPYDYWGQGTQVTVSS | high polyreactivity
QVQLHESGGGLVQAGGSLLSCAASGTISYYREMGWYRQAPGKERELVAGIGVGTITYYADSVKGRFTISRDNAKNTVYLHMNSLKPEDTAVYYCAAHFDGNDSHAYWGQGTQVTVSS | low polyreactivity
QVQLVESVGGLVQAGGSLRLSCPASGSIFYANAMGGYRQAPGKERELVATISTGGGRTYYADSVKGRFTISRDKAKNTVYLQMNSLKAEDTAVYYCNATRNYARVRYYYWGKGTQVTVSS | high polyreactivity
QVQLVESGGGLVQAGGSLRLSCAASGRIFEPYTMGWYRQAPGKEREFVATITASGDSTYYADSVKGRFTISRDNAKNTVYLQMNSLKPEDTAVYYCAAAPFGGYEYDYWGQGTQVTVSS | high polyreactivity
QVQLVESGGGLVQAGGSLRLSCAASGNIFLYYAMGWYIPAPGKEREFVSDIDSSGASTYYADSVKGRFTISRDNAKNTVYLQMNSLKPEDTAVYYCAAEFHWWYAGYDYGYWGQGTQVTVSS | low polyreactivity
QVQLVESVGGLVQAGGSLRLSCASSGRIFRGNAMGWYRQAPGKERELVAAINSRGTHTYYADSVKGRFTISRDNAKNTVYLQMNSLKPEDTAVYYCAATWTQPQPGYYAYYYWGQGTQVSVSS | high polyreactivity
QVQLVESGGGLVQAGGSLRLSCAASGRIFQPNVMGWYRQAPGKERELVAAIRSGSSTYYADSVKGRFTISRDNAKNTVYLQMNSLKPEDTAVYYCATRRAGRGYDYWGQGTQVTVSS | high polyreactivity
QVQLVESGGGLVQAGGSLRLSCAASGFIFIAYAMGWYRQAPGKERELVAAISKSGGNTYYADSVKGRFTISRDNAKNTVYLQMNSLKPEDTAVYYCATRPGYWRYEYWGQGTQVTVSS | high polyreactivity
QVQLVESGGGLVQAGGSLRLSCSASGFTFRSYAMGWYRQAPGEEREFVAAISRRGDSTYYADSVKGRFTISRDNAKNTVYLQMNSLKPEDTAVYYCAKYGIASRYSRFDSWGQGTQVTVSS | high polyreactivity

Reference: the nanobody polyreactivity screen of Harvey et al. (2022)
